According to publication PMC4165372, “Nutritional status modulates box C/D snoRNP biogenesis by regulated subcellular relocalization of the R2TP complex” (Genome Biology, 2014):

T1: GST-Nop58-447 (S. cerevisiae, UniProt Q12499 1-447)
T1 construct: Cloned in pGEX-6P-1 (BamHI-XhoI); source: E. coli BL21(DE3) pRIL, purified (glutathione Sepharose 4B); not shown: GST, N-terminal, kept
T1 sequence (looked up): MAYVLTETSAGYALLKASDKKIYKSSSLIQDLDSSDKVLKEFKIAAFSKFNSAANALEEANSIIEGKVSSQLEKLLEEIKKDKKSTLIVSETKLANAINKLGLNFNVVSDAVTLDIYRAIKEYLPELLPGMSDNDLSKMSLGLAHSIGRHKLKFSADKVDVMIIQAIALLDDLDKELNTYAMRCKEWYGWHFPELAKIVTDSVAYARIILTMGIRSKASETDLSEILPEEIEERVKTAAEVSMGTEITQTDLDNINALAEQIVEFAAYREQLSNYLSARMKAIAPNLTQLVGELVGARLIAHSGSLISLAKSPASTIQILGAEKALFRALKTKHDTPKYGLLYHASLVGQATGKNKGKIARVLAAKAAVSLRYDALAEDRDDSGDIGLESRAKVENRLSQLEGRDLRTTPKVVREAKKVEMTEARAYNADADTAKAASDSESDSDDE

B1: Pih1(1–230) (domain or fragment, S. cerevisiae, UniProt P38768 1-230, looked up)
chain: MADFLLRPIKQRHRNEDKYVSVDAADGSVSKIEPIADFVIKTKLLSANGPEKLQDGRKVFINVCHSPLVPKPEVDFNARIVFPLIIQNEWEIPIITSCYRMDHDKKGQECYVWDCCINSDCSRWICDDIQLREILVEWCLESCEIRDSVVLCRDRIAFPKMKKKGAELPALEVLNDELHQDYKAKMHKIIEEEAGDPMSILRGRNDDGDDNNDPDDGTLPPLFPIENKIS
notes: Pih1, S. cerevisiae, N-terminal domain, residues 1-230 of 344; also called N-terminal domain of Pih1
B2: full-length Pih1 (natural protein, S. cerevisiae, UniProt P38768 1-344, looked up)
chain: MADFLLRPIKQRHRNEDKYVSVDAADGSVSKIEPIADFVIKTKLLSANGPEKLQDGRKVFINVCHSPLVPKPEVDFNARIVFPLIIQNEWEIPIITSCYRMDHDKKGQECYVWDCCINSDCSRWICDDIQLREILVEWCLESCEIRDSVVLCRDRIAFPKMKKKGAELPALEVLNDELHQDYKAKMHKIIEEEAGDPMSILRGRNDDGDDNNDPDDGTLPPLFPIENKISGAKIEEIDKNEIAHRNLKQAPAPAPAPHEQQEDVPEYEVKMKRFKGAAYKLRILIENKAPNSKPDRFSPSYNFAENILYINGKLSIPLPRDIVVNAADIKIFHIRKERTLYIYI
notes: Pih1, S. cerevisiae, 344 amino acids
B3: GST-Nop58-MC (domain or fragment, S. cerevisiae, UniProt Q12499 158-447, looked up)
chain: KVDVMIIQAIALLDDLDKELNTYAMRCKEWYGWHFPELAKIVTDSVAYARIILTMGIRSKASETDLSEILPEEIEERVKTAAEVSMGTEITQTDLDNINALAEQIVEFAAYREQLSNYLSARMKAIAPNLTQLVGELVGARLIAHSGSLISLAKSPASTIQILGAEKALFRALKTKHDTPKYGLLYHASLVGQATGKNKGKIARVLAAKAAVSLRYDALAEDRDDSGDIGLESRAKVENRLSQLEGRDLRTTPKVVREAKKVEMTEARAYNADADTAKAASDSESDSDDE
notes: Nop58, S. cerevisiae, middle and C-terminal domains (lacks the N-terminal domain and the KKE/D repeat); start worked out from the forward primer NOP58-472-BamHI-F (nucleotide 472 = codon 158); The forward primer adds an ATG before the first Nop58 codon; also called pGST-Nop58-MC; pGEX-Nop58-MC; source: E. coli BL21(DE3) pRIL, purified (glutathione Sepharose 4B); not shown: GST, N-terminal, kept
B4: GST-Nop58-NM (domain or fragment, S. cerevisiae, UniProt Q12499 1-284, looked up)
chain: MAYVLTETSAGYALLKASDKKIYKSSSLIQDLDSSDKVLKEFKIAAFSKFNSAANALEEANSIIEGKVSSQLEKLLEEIKKDKKSTLIVSETKLANAINKLGLNFNVVSDAVTLDIYRAIKEYLPELLPGMSDNDLSKMSLGLAHSIGRHKLKFSADKVDVMIIQAIALLDDLDKELNTYAMRCKEWYGWHFPELAKIVTDSVAYARIILTMGIRSKASETDLSEILPEEIEERVKTAAEVSMGTEITQTDLDNINALAEQIVEFAAYREQLSNYLSARMKAIA
notes: Nop58, S. cerevisiae, N-terminal and middle domains (lacks the C-terminal domain); end worked out from the reverse primer NOP58-852-XhoI-R (nucleotide 852 = codon 284); also called pGST-Nop58-NM; pGEX-Nop58-NM; source: E. coli BL21(DE3) pRIL, purified (glutathione Sepharose 4B); not shown: GST, N-terminal, kept

Key:
Details in all cases: both partners purified
Pih1(1–230) = target: B1; assay: pull-down; GST-Nop58 variants immobilised on glutathione Sepharose 4B, incubated with Pih1 or Pih1(1–230) 40 min at 30°C in GST lysis buffer (1×PBS, 0.1% NP40, 10% glycerol, 1 mM DTT); washes with 0.5 M NaCl; Ponceau S and Western blot
full-length Pih1 = target: B2; assay: as above
Rvb1/Rvb2 complex = target: T2, Rvb1/Rvb2 complex (S. cerevisiae, UniProt Q03940 1-463; Q12464 1-471); assay: pull-down; GST-Nop58-C on MagneGST glutathione particles incubated with 0.1 μM preformed Rvb1/2 or R2TP complex at 4°C for 16 h; washed with buffer H with 0.1 M KCl at 23°C; Western blot
T2 construct: Rvb1, S. cerevisiae; Rvb2, S. cerevisiae, untagged; also called Rvb1/2; preformed Rvb1/2; source: E. coli BL21(DE3) pRIL, co-expressed (pCOLADuet-1), purified (Ni-NTA, TEV protease, Superdex 200); not shown: His6 (HV-tag, with TEV site), N-terminal, cleaved

[1] = target: T3, R2TP complex (recombinant, preformed) (S. cerevisiae, UniProt Q03940 1-463; Q12464 1-471; P25638 1-111; P38768 1-344); assay: as above
T3 construct: Rvb1, S. cerevisiae; Rvb2, S. cerevisiae, untagged; Tah1, S. cerevisiae; Pih1, S. cerevisiae, untagged; also called preformed R2TP complex purified from E. coli; source: preformed complex purified from E. coli; not shown: His6 (HV-tag, with TEV site), N-terminal, cleaved; copies: + + +

GST-Nop58-447 = target: T1, GST-Nop58-447; assay: pull-down; GST-Nop58 variants immobilised on glutathione Sepharose 4B, incubated with Pih1 or Pih1(1–230) 40 min at 30°C in GST lysis buffer (1×PBS, 0.1% NP40, 10% glycerol, 1 mM DTT); washes with 0.5 M NaCl; Ponceau S and Western blot
GST-Nop58-MC = target: B3; assay: as above
GST-Nop58-NM = target: B4; assay: as above

T3 sequence (Q03940 whole entry, chain 1 of 3): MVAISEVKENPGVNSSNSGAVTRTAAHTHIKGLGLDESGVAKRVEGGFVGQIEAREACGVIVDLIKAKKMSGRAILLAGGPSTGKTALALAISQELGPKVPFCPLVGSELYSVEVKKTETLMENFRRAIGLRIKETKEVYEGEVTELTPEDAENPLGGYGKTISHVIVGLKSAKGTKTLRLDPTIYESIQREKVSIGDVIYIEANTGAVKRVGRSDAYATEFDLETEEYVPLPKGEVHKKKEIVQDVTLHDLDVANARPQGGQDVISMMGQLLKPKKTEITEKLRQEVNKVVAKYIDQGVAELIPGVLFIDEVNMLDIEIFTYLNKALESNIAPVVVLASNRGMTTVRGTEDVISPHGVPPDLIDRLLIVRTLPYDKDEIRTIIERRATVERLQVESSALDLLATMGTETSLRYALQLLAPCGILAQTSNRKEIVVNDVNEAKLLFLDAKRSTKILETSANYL
T3 sequence (Q12464 whole entry, chain 2 of 3): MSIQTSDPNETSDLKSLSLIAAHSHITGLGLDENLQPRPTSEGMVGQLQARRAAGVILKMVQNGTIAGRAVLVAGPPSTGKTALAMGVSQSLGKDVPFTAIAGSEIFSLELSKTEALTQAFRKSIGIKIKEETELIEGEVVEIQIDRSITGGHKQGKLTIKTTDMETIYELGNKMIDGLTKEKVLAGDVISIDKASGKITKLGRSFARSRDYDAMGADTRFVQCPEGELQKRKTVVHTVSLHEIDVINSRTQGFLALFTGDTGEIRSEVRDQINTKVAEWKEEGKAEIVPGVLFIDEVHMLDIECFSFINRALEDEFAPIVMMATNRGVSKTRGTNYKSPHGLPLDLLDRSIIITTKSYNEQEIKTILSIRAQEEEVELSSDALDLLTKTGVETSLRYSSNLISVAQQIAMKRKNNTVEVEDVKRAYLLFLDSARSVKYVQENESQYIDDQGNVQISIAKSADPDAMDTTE
T3 sequence (P25638 whole entry, chain 3 of 3): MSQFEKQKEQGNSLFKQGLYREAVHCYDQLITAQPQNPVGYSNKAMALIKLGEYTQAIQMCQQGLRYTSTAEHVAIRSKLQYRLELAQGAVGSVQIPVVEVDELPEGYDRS
T2 sequence (Q03940 whole entry, chain 1 of 2): as the sequence (Q03940 whole entry, chain 1 of 3) above
T2 sequence (Q12464 whole entry, chain 2 of 2): as the sequence (Q12464 whole entry, chain 2 of 3) above

Binder	binding result (full-length Pih1)	binding result (GST-Nop58-447)	further results
GST-Nop58-C (domain or fragment, S. cerevisiae, UniProt Q12499 285-447, looked up, also called pGST-Nop58-C; pGEX-Nop58-C; source: E. coli BL21(DE3) pRIL, purified (glutathione Sepharose 4B; MagneGST Glutathione Particles for the reconstitution with Rvb1/2 or R2TP); not shown: GST, N-terminal, kept) PNLTQLVGELVGARLIAHSGSLISLAKSPASTIQILGAEKALFRALKTKHDTPKYGLLYHASLVGQATGKNKGKIARVLAAKAAVSLRYDALAEDRDDSGDIGLESRAKVENRLSQLEGRDLRTTPKVVREAKKVEMTEARAYNADADTAKAASDSESDSDDE	binds		binding result (Pih1(1–230)): binds; binding result (Rvb1/Rvb2 complex): binds; binding result [1]: binds
B1		binds	binding result (GST-Nop58-MC): binds; binding result (GST-Nop58-NM): binds
B2		binds	
B3	binds		
B4	binds		
